Data: publication PMC5986765 (Cell Discovery, 2018)
Bridge positions count the residues as written; N and C are the ends. Ends that are not written are not given here.

B1: truncated chicken ASIC1a (residues 14-463), cASIC1a^ΔNC (domain or fragment)
chain: GQPVSIQAFASSSTLHGISHIFSYERLSLKRVVWALCFMGSLALLALVCTNRIQYYFLYPHVTKLDEVAATRLTFPAVTFCNLNEFRFSRVTKNDLYHAGELLALLNNRYEIPDTQTADEKQLEILQDKANFRNFKPKPFNMLEFYDRAGHDIREMLLSCFFRGEQCSPEDFKVVFTRYGKCYTFNAGQDGKPRLITMKGGTGNGLEIMLDIQQDEYLPVWGETDETSFEAGIKVQIHSQDEPPLIDQLGFGVAPGFQTFVSCQEQRLIYLPPPWGDCKATTGDSEFYDTYSITACRIDCETRYLVENCNCRMVHMPGDAPYCTPEQYKECADPALDFLVEKDNEYCVCEMPCNVTRYGKELSMVKIPSKASAKYLAKKYNKSEQYIGENILVLDIFFEALNYETIEQKKAYEVAGLLGDIGGQMGLFIGASILTVLELFDYAYEVIKHR
notes: not shown: His8, N-terminal, cleaved; EGFP, N-terminal, cleaved
B2: mambalgin-1 (peptide)
chain: LKCYQHGKVVTCHRDMKFCYHNTGMPFRNLKLILQGCSSSCSETENNKCCSTDRCNK
notes: also called synthetic mambalgin-1; wild-type mambalgin-1

How the values were obtained:
chicken ASIC1a (cASIC1a) = target: T1, chicken ASIC1a (cASIC1a) (Gallus gallus, UniProt Q1XA76); experiment: whole-cell patch clamp in CHO cells, inhibition of chicken ASIC1a; format: cell-based; conditions: for effect of mambalgin-1 point mutants on wild-type cASIC1a: 500 nM, means ± S.E., t-test versus WT, n = 4–13, bar graph Fig. 3e, values not given
T1 construct: expressed in transfected cells; host or cells: CHO cells, transient transfection, pcDNA3.1/Zeo(+)
T1 sequence (Q1XA76 1-527): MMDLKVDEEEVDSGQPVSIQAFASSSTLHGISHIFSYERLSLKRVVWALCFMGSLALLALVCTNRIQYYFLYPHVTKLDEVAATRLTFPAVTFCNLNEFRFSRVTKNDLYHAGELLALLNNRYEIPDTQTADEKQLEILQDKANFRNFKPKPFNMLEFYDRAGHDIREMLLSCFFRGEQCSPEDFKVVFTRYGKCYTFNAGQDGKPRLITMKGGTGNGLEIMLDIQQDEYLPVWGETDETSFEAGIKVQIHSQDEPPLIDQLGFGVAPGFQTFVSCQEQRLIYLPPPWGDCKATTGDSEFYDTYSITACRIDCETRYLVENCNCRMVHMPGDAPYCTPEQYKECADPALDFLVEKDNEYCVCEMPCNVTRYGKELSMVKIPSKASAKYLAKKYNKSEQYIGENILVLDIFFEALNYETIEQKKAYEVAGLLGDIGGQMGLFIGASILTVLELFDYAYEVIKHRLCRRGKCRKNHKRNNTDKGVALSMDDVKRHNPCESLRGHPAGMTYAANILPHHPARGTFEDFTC
Source text: (§1) Fig. 1 Chemical synthesis and bioactivity analysis of mambalgin-1. a Synthetic route of mambalgin-1 and its mutants. b Synthetic mambalgin-1 inhibits recombinant human and chicken ASIC1a (hASIC1a and cASIC1a) channels in CHO cells. After two stable records of acid currents that were elicited by a pH drop from 7.4 to 6.0 for 4 s, synthetic mambalgin-1 was applied at pH 7.4 for 30 s followed by another application during a 4spH drop to 6.0. c Concentration–response curve showing the inhibition of hASIC1a and cASIC1a channels expressed in CHO cells (n = 3–14) by synthetic wild-type mambalgin-1
The coding sequence for wild-type cASIC1a was sub-cloned into the pcDNA3.1/Zeo( + ) vector. All site-directed mutations were generated with overlap PCR and inserted into pcDNA3.1/Zeo(+). The mutants were sequenced to verify that no unwanted mutations had been introduced. Chinese hamster ovary (CHO) cells were cultured in DMEM/F12 medium (Gibco) supplemented with 10% fetal bovine serum (FBS), 100 U/mL penicillin, and 100 U/mL streptomycin at 37 °C in a 5% CO2 incubator. The CHO cells were transferred to 24-well plates for transfection. When the CHO cells reached 90% confluence, they were transfected with 0.6 μg of plasmid encoding EGFP and 0.8 μg of plasmid encoding wild-type or mutant cASIC1a using Lipofectamine 2000 (Invitrogen, USA). After incubation for 5 h, the cells were transferred to poly-L-lysine (Sigma)-coated slides for culture for another 24–48 h in fresh medium. They were then used for the electrophysiological analysis.
For the whole-cell recordings, the bath solution contained 150 mM NaCl, 4 mM KCl, 2 mM CaCl2, 1 mM MgCl2, and 10 mM HEPES (pH 7.4, ~308 mOsm). For acidic solution below pH 6.0, HEPES was replaced by 10 mM MES to buffer solutions. The electrodes were pulled from thick-walled borosilicate glass capillaries with filaments (1.5 mm diameter; Sutter Instruments) on a four-stage puller (P-1000; Sutter, USA) and had resistances of 2–5 MΩ when filled with intracellular solution containing 140 mM KCl, 10 mM NaCl, 5 mM EGTA, 10 mM HEPES, (pH 7.4, ~297 mOsm). All chemicals were obtained from Sigma. The experiments were performed at room temperature with an EPC-10 amplifier (HEKA Electronic) with the data acquisition software PatchMaster. Membrane potential was held at −70 mV in all experiments. Acid-induced currents were recorded by rapidly exchanging local solution from pH 7.4 to acidic pH through a Y-tube perfusion system. Toxins were applied 30 s before the pH decreased and persisted during low pH application. Channels were activated by acid perfusion at least every 2 min to allow for a complete recovery of the channels from desensitization. Recordings in which access resistance or capacitance changed by 10% during the experiment were excluded from data analysis. Mambalgin-1 was added when the currents were stable.
(§2) The data were analyzed with Clampfit and SigmaPlot. The dose–response curves used to determine the IC50 values were fitted using the Hill equation: y = 1 + (Imax−1)/(1 + (IC50/x)^h), where y represents the normalized current, Imax represents the control current of ASIC1 detected in each set of experiments; x is the toxin concentration, h is the Hill coefficient, and IC50 is the half-maximal concentration. The results are presented as the means ± standard errors (SE), and n is the number of experiments.

mice = conditions: cited from earlier work
Source text: Mambalgin-1, a toxin isolated from black mamba venom, is a disulfide-rich polypeptide consisting of 57 amino acids and belongs to the family of three-finger toxins[31],[38].

human ASIC1a (hASIC1a) = target: T2, human ASIC1a (hASIC1a) (Homo sapiens, UniProt P78348); experiment: whole-cell patch clamp in CHO cells, inhibition of human ASIC1a; format: cell-based; conditions: synthetic mambalgin-1, whole-cell recording at −70 mV, pH drop from 7.4 to 6.0 for 4 s, toxin applied 30 s before at pH 7.4 and during acid, room temperature, Hill fit, mean ± SE, n = 3–14
T2 construct: expressed in transfected cells; host or cells: CHO cells
T2 sequence (P78348 1-528): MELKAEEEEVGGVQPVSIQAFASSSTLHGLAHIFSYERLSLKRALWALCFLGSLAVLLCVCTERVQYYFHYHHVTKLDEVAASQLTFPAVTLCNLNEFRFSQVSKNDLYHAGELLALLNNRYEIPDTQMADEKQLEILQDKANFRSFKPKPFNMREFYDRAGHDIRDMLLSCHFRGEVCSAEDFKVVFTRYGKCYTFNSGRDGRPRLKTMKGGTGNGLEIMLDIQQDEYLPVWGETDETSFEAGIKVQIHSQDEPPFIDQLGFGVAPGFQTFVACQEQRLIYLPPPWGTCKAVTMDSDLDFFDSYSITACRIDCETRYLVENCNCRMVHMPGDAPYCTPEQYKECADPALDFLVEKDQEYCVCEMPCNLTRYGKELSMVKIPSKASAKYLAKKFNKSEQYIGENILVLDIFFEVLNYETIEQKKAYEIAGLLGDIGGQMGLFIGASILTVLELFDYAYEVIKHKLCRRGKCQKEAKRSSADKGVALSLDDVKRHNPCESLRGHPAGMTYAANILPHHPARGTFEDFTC
Source text: as §1
The coding sequence for wild-type cASIC1a was sub-cloned into the pcDNA3.1/Zeo( + ) vector. […]
For the whole-cell recordings, the bath solution contained 150 mM NaCl, 4 mM KCl, 2 mM CaCl2, 1 mM MgCl2, and 10 mM HEPES (pH 7.4, ~308 mOsm). […] Acid-induced currents were recorded by rapidly exchanging local solution from pH 7.4 to acidic pH through a Y-tube perfusion system. […]
as §2, with “The results are presented as the means ± standard errors (SE), and n is the number of experiments.” left out

ASIC1a = conditions: cited from earlier work
Source text: Mambalgin-1 can bind to and stabilize ASICs in a physiologically relevant closed-channel conformation, but the underlying binding and inhibition mechanism remains elusive. […] Previously, a docked structure of the cASIC1a–mambalgin-1 complex was reported[23],[24], following the crystal structure of the cASIC1a–PcTx1 complex. Mambalgin-1 was predicted to insert into the acidic pocket (also known as the acid-sensing pocket) inside t ...

[1] = target: the molecule itself; experiment: cryo-EM structure; […] 5.7 Å overall map, 5.4 Å map of the extracellular part; poly-alanine model by rigid-body fitting of crystal structures
[2] = target: B1; experiment: cryo-EM structure; conditions: both partners purified

H6A: mutation of mambalgin-1 in the Finger I region (LKCYQAGKVVTCHRDMKFCYHNTGMPFRNLKLILQGCSSSCSETENNKCCSTDRCNK; disulfide (positions not given here); ends not checked; UniProt P0DKR6 22-78, looked up, variant H6A)
effect of mambalgin-1 point mutants on wild-type cASIC1a (chicken ASIC1a (cASIC1a)): perturbed the inhibitory effects of the cASIC1a channel

F27A: mutation of mambalgin-1 in the Finger II region (LKCYQHGKVVTCHRDMKFCYHNTGMPARNLKLILQGCSSSCSETENNKCCSTDRCNK; disulfide (positions not given here); ends not checked; UniProt P0DKR6 22-78, looked up, variant F27A)
effect of mambalgin-1 point mutants on wild-type cASIC1a (chicken ASIC1a (cASIC1a)): perturbed the inhibitory effects of the cASIC1a channel

K8A: mutation of mambalgin-1 in the Finger I region (LKCYQHGAVVTCHRDMKFCYHNTGMPFRNLKLILQGCSSSCSETENNKCCSTDRCNK; disulfide (positions not given here); ends not checked; UniProt P0DKR6 22-78, looked up, variant K8A)
effect of mambalgin-1 point mutants on wild-type cASIC1a (chicken ASIC1a (cASIC1a)): perturbed the inhibitory effects of the cASIC1a channel

LKCYQHGKVVTCHRDMKFCYHNTGMPFRNLKLILQGCSSSCSETENNKCCSTDRCNK-NH2 (disulfide 3-19, 12-37, 41-49, 50-55) [mambalgin-1]
IC50 (chicken ASIC1a (cASIC1a); synthetic mambalgin-1, whole-cell recording at −70 mV, pH drop from 7.4 to 6.0 for 4 s, toxin applied 30 s before at pH 7.4 and during acid, room temperature, Hill fit, mean ± SE, n = 3–14): 124 ± 20.3 nM | adverse side effects relative to traditional opioid drugs (mice): fewer adverse side effects than traditional opioid drugs | IC50 (human ASIC1a (hASIC1a)): 197 ± 18.7 nM

PcTx1 (EDCIPKWKGCVNRHGDCCEGLECWKRRRSFEVCVPKTPKT; ends and bridges not checked; cysteine pairing not given here; UniProt P60514 1-40, looked up)
channel states bound, PcTx1 (ASIC1a): binds tightly to the open and desensitized states of ASIC1a

R28A: mutation of mambalgin-1 in the Finger II region (LKCYQHGKVVTCHRDMKFCYHNTGMPFANLKLILQGCSSSCSETENNKCCSTDRCNK; disulfide (positions not given here); ends not checked; UniProt P0DKR6 22-78, looked up, variant R28A)
effect of mambalgin-1 point mutants on wild-type cASIC1a (chicken ASIC1a (cASIC1a)): perturbed the inhibitory effects of the cASIC1a channel

Q5A: mutation of mambalgin-1 in the Finger I region (LKCYAHGKVVTCHRDMKFCYHNTGMPFRNLKLILQGCSSSCSETENNKCCSTDRCNK; disulfide (positions not given here); ends not checked; UniProt P0DKR6 22-78, looked up, variant Q5A)
effect of mambalgin-1 point mutants on wild-type cASIC1a (chicken ASIC1a (cASIC1a)): perturbed the inhibitory effects of the cASIC1a channel

B1
stoichiometry N [1]: 3

B2
stoichiometry N [2]: 3 mambalgin-1 per cASIC1a trimer
